± gives the uncertainty stated by the source.
Assay: protein stability index of a GFP-peptide fusion (yeast GPS) (PSI 1-4); higher = more stable; sorted into four equal gates, so the index is relative within each strain
Method in brief: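 Tiled yeast protein peptides of 17 residues were each joined downstream of GFP, on plasmids that also express Cherry. The pooled library was maintained in yeast, and mid-log cultures in leucine-free medium were sorted into four equal gates on the GFP/Cherry ratio. Plasmids from every gate were amplified by PCR and sequenced on Illumina, with barcodes linking reads to strains. The protein stability index of a peptide is its gate-number-weighted read frequency summed over the gates.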

Sequence	protein stability index (doa10∆)	protein stability index (pdr5∆)	protein stability index (san1∆)	protein stability index (ubr1∆)
KHYKNIPRNSPLSDLKK [RPC82]	2.88 ± 0.15	2.97 ± 0.17	2.59 ± 0.19	2.97 ± 0.083
FNLNLPPSSFGRSHTRN [REC8]	3.35 ± 0.11	2.51 ± 0.1	3.04 ± 0.058	3.27 ± 0.19
WIKNEQERQRQIQKNGP [PRP8]	2.75 ± 0.092	3.09 ± 0.11	2.85 ± 0.14	2.84 ± 0.094
LFQVEYSLEAIKLGSTA [PUP2]	1.61 ± 0.075	2.32 ± 0.069	2.08 ± 0.12	2.2 ± 0.053
NDLDYDLIADTITNSSS [YML103C/NUP188]	2.9 ± 0.061	3.06 ± 0.067	2.99 ± 0.036	3.02 ± 0.048
RITDASLFQLSKLGKNL [GRR1]	2.38 ± 0.045	2.55 ± 0.05	2.12 ± 0.061	2.51 ± 0.036
GNIKDLPENIILTSLMR [CSN9]	2.69 ± 0.1	2.93 ± 0.075	2.43 ± 0.14	3.03 ± 0.1
DGHLRAPLKHGVGILYK [BRR2]	1.31 ± 0.055	2.33 ± 0.08	1.58 ± 0.2	1.26 ± 0.07
QFTKVIDEPIKSIMDGI [FAS1]	1.86 ± 0.047	2.27 ± 0.078	2.54 ± 0.16	1.49 ± 0.072
MISIIKLVTNVVDPKTS [YML103C/NUP188]	1.84 ± 0.047	1.81 ± 0.045	2.04 ± 0.093	1.67 ± 0.035
FKCQEKDKGVYVVTSDE [SIR2]	2.94 ± 0.076	3.08 ± 0.085	3.27 ± 0.072	3.34 ± 0.054
KQYLSASFSLKNGDKPH [RPL6A]	2.34 ± 0.057	1.93 ± 0.045	2.43 ± 0.058	2.96 ± 0.029
SEGFEPTFSTHAQLLLS [PRP8]	1.96 ± 0.038	2.08 ± 0.037	1.66 ± 0.048	1.97 ± 0.034
ISENTFPNGFKNFENGP [RPC34]	2.96 ± 0.081	3.03 ± 0.069	2.91 ± 0.052	2.57 ± 0.034
SNYSRTMTISHLLLGFQ [YJL039C/NUP192]	1.82 ± 0.05	1.69 ± 0.044	1.59 ± 0.058	2.1 ± 0.034
SDPVCLFVCNKDPDVPL [POP3]	1.91 ± 0.053	2.35 ± 0.075	2.31 ± 0.084	2.52 ± 0.081
KNTMFEKSDALVGVYRQ [SMC1]	3.27 ± 0.18	2.88 ± 0.11	2.7 ± 0.081	2.94 ± 0.23
KCKTRAQLTLKRCKHFE [RPL42A]	2.65 ± 0.088	2.58 ± 0.085	2.85 ± 0.064	2.68 ± 0.061
LKDLMDLCDVVESKFTE [RPC19]	3.61 ± 0.2	3.5 ± 0.11	3.27 ± 0.11	3.26 ± 0.12
PDENHDNTSHDEQDDDN [BRN1]	3.11 ± 0.1	3.2 ± 0.095	3.05 ± 0.12	3.11 ± 0.1
TKRWYKNAGLGFKTPKT [RPS11A]	3.32 ± 0.096	3.42 ± 0.12	3.05 ± 0.11	3.5 ± 0.082
SGPFKVNGVPLRRVNAR [RPL6A]	2.67 ± 0.25	2.84 ± 0.2	2.96 ± 0.24	2.77 ± 0.075
VENDTFIERNFTPQEIE [FAS2]	2.87 ± 0.083	2.32 ± 0.062	2.15 ± 0.068	3.18 ± 0.05
NQMKVAPIPKQLLQRIP [GAL11]	2.28 ± 0.07	2.54 ± 0.062	2.52 ± 0.054	2.3 ± 0.043
EVSQFLIENGASVRIKD [NAS6]	3.08 ± 0.21	2.39 ± 0.2	–	2.71 ± 0.12
DIFAVNLEESSKLDIYT [RET1]	2.98 ± 0.097	2.78 ± 0.081	2.72 ± 0.087	3 ± 0.08

Sequence	protein stability index (doa10∆)	protein stability index (pdr5∆)	protein stability index (san1∆)	protein stability index (ubr1∆)
GMTPCTVSPDFVAATTN [FAS1]	1.83 ± 0.076	1.98 ± 0.054	1.86 ± 0.12	1.99 ± 0.07
YNDSATSGEAAALGMGL [RPN2]	2.32 ± 0.096	2.45 ± 0.11	2.99 ± 0.078	2.43 ± 0.084
NHITEFPSIPLPINGPI [RPC31]	2.06 ± 0.05	2.24 ± 0.048	2.08 ± 0.07	1.94 ± 0.051
EPMKQLNATKISPSAPS [YAR002W/NUP60]	2.73 ± 0.075	2.91 ± 0.083	2.96 ± 0.062	2.77 ± 0.078
PHANPITHAHSLSNPNS [PGD1]	2.87 ± 0.046	2.99 ± 0.045	2.77 ± 0.038	2.94 ± 0.03
RSLEKVNNSVSKTGSVD [SSN2]	2.38 ± 0.11	3.53 ± 0.15	3.36 ± 0.14	3.37 ± 0.11
ISKTTLTLDPRYIWRSL [RPN3]	2.75 ± 0.1	2.61 ± 0.082	2.5 ± 0.085	2.6 ± 0.15
EDYELSPQAVSSFVRQE [PRE1]	2.29 ± 0.14	2.42 ± 0.15	2.31 ± 0.093	2.53 ± 0.083
KFMTNSTAFVPTIEYVQ [ARP9]	2.22 ± 0.062	2.65 ± 0.048	2.83 ± 0.076	2.62 ± 0.041
TQTESKKEENETISNVA [SNF2]	3.07 ± 0.056	3.1 ± 0.048	2.98 ± 0.045	3.19 ± 0.038
LGIKKEKRIQYAKDILQ [RPB2]	2.01 ± 0.059	2.12 ± 0.061	1.64 ± 0.094	1.99 ± 0.041
NPHDGVNSIALFVGTDR [RPN14]	2.08 ± 0.14	2.42 ± 0.096	2.33 ± 0.076	2.99 ± 0.11
GHTLINNYKDLLAVAIA [RPP0]	1.19 ± 0.17	1.61 ± 0.24	1.31 ± 0.17	1.18 ± 0.16
KVIEEQLKHTKLALAEN [SMC4]	1.89 ± 0.12	1.78 ± 0.1	1.32 ± 0.15	2.23 ± 0.098
FERIMILDPQVTRFTTW [YJL039C/NUP192]	1.06 ± 0.077	1.33 ± 0.073	1.22 ± 0.12	1.23 ± 0.062
NLAIVELVRLLIIDEIH [BRR2]	2.58 ± 0.069	2.38 ± 0.08	2.85 ± 0.088	2.36 ± 0.062
SNAFYSVLRDTLVAQNL [SMC4]	2.13 ± 0.086	2.09 ± 0.054	1.94 ± 0.076	2.13 ± 0.033
KDSNKDVVVEGLRRARY [RPL10]	3.26 ± 0.097	3.34 ± 0.071	3.38 ± 0.072	3.38 ± 0.058
LVVYAEDNGIVKALRNV [RPL4A]	2.1 ± 0.14	3.16 ± 0.12	2.59 ± 0.086	2.57 ± 0.12
VNADTVGKTVKQLIMES [NSL1]	3.22 ± 0.077	3.13 ± 0.055	2.94 ± 0.058	3.33 ± 0.05
TSSAPAQNQGMFGAKPA [YGL172W/NUP49]	2.44 ± 0.11	2.75 ± 0.089	1.92 ± 0.14	2.79 ± 0.069
DKQGWTPLFHALAEGHG [NAS6]	2.75 ± 0.2	2.34 ± 0.098	2.99 ± 0.13	3.01 ± 0.17
NVANVSGSTEKAFKICE [SIR3]	2.96 ± 0.054	2.91 ± 0.048	3.18 ± 0.043	3.11 ± 0.058
LTGNQLPTPTPTEMEPD [SWI1]	2.67 ± 0.051	2.92 ± 0.052	2.51 ± 0.062	2.85 ± 0.03
QLKFEGFALNSDIVFIH [BRR2]	1.87 ± 0.064	1.71 ± 0.061	2.06 ± 0.065	1.81 ± 0.036
ESLQKRELLKSQVEDFT [SIR3]	3.15 ± 0.045	3.22 ± 0.054	3.12 ± 0.048	3.27 ± 0.043

Reference: the supplement of paper PMC9732359
